Substitutions are numbered along the chain they refer to.
Tests used:
Conditions in all cases: protein: recombinant; tags: N-terminal MBP; chain copies: 2; label: 5'-32P; single strand
MBP-Orf = biological target: T1, MBP-Orf (Bacteriophage lambda, UniProt P03765 1-146); assay: EMSA; 5 mM EDTA; EMSA: 50 mM Tris-HCl pH 8.0, 5 mM EDTA (or 1 mM MgCl2), 1 mM DTT, 5% glycerol, 100 ug/ml BSA, on ice 15 min, 4% PAGE; anisotropy: 100 mM Tris-HCl pH 7.0, 10 nM
T1 sequence: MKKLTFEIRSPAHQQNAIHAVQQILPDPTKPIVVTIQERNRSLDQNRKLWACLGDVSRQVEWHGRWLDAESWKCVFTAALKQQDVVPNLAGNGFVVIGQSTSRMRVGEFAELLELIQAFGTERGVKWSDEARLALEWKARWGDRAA

MBP-Orf R103E = biological target: T2, MBP-Orf R103E (Bacteriophage lambda, UniProt P03765 1-146, R103E); assay: EMSA; 5 mM EDTA; up to 500 nM; EMSA: 50 mM Tris-HCl pH 8.0, 5 mM EDTA (or 1 mM MgCl2), 1 mM DTT, 5% glycerol, 100 ug/ml BSA, on ice 15 min, 4% PAGE; anisotropy: 100 mM Tris-HCl pH 7.0, 10 nM
T2 sequence: T1 sequence with R103E

MBP-YbcN = biological target: T3, MBP-YbcN (Escherichia coli cryptic prophage DLP12 …, UniProt Q47269 1-151); assay: EMSA; 5 mM EDTA; lower affinity than MBP-Orf; EMSA: 50 mM Tris-HCl pH 8.0, 5 mM EDTA (or 1 mM MgCl2), 1 mM DTT, 5% glycerol, 100 ug/ml BSA, on ice 15 min, 4% PAGE; anisotropy: 100 mM Tris-HCl pH 7.0, 10 nM
T3 sequence: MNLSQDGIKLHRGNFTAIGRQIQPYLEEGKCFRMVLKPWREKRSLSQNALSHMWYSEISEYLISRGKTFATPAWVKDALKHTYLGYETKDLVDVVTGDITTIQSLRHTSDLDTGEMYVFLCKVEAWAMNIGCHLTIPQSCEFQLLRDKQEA

GGCGACGTGATCACCAGATGATTGCTAGGCATGCTTTCCGCAAGAGAAGC (ssDNA) [SS50]
binding result (MBP-Orf): binds | binding result (MBP-Orf R103E): no binding | binding result (MBP-YbcN): binds
